Assay results as given in patent US20240101645A1 (HENRY M JACKSON FOUNDATION FOR THE ADVANCEMENT OF MILITARY …, published 2024).

Target: SARS-CoV-2 S on pseudovirions (Wuhan Hu-1 / IL1/2020, last 18 amino acids removed) (SARS-CoV-2, UniProt P0DTC2 14-1273)
Test: cell-based or functional assay

Row | Binder | Mean IC50, pSV neutralization [µg/ml] | Mean IC80, pSV neutralization [µg/ml]
1 | COV_1198 (antibody, V domains shown) VH: EVQLVEAGGDLVQPGGSLRLSCSASGFTFTSYSIHWVRQAPGKGLEYVSTISHGGDITDFADSVKGRFTISRDNSENTVYLQMSSLRPEDTAVYYCARSNFWLDYWGQGTLVTVSS VL: KIVMTQSPATLSVSPGDSATLSCRASQSVSSNLAWYQQKPGQAPRLLISGAFTRATGIPARFSGSGSGTEFTLTISSLQSEDFAVYYCLQYNNWPLYTFGQGTKLEIKR | ≥ 25 | ≥ 25
2 | COV_1046 (antibody, V domains shown) VH: QVQLVQSGAEVQKPGASVKVSCKASGDTFSYSYVHWVRQAPGHGLEWMGIINPSNGDTNYTQNFQGRVTMTSDTSTSTVLLELSSLTSDDTAVYYCARAPDQYFDYWGQGSPVTVSA VL: DIVMTQTPLSSPVTLGQPASISCRSSESLVHSDGNTYLSWLQQRPGQPPRLLIYRVSNRFSGVPDRFSGSGAGTDFTLKISRVEAEDVGVYYCMQAKDFPRTFGQGTKVEIK | ≥ 25 | ≥ 25
3 | COV_2066 (antibody, V domains shown) VH: QVQLQESGPGLVKPSETLSLTCSVSGFAITNGFDWGWIRQPPRLGLEWIGTVFHTGVTYSNPSLKSRLSTSVDTSKNQFSMTLNSVTAADTGIYYCVRVQSGLEARAMSFFDYWGQGMLVSVSS VL: DIVMTQSPDSLAVSLGERATINCKSSQNVLYSSNNKNSLAWYQQKPGQPPKVLIYWASTRVSGVPDRFIGSGSGTDFTLTISSLQAEDVAVYYCQQYSSSITFGPGTKVEVKR | ≥ 25 | ≥ 25
4 | COV_1076 (antibody, V domains shown) VH: QVQLVESGGGLVKPGGSLRLSCAASGFTFSEYSMSWIRQAPGKGLEWVSFIGGSGDYTNYADSVKGRFTISRDNAKNLLYLQMNTLRVEDTAVYYCARRGSANCGDDWWGQGTLVTVSS VL: DIVMTQSPDSLAVSLGERATINCKSSHGVLYRSNNKDHLAWYQQKPGHPPKLLIYWASIRESGVPDRFSGSGSGTDFTLTISGLQAEDVAVYYCQQYYGNPTFGGGTKVEIKR | ≥ 25 | ≥ 25
5 | COV_3005 (antibody, V domains shown) VH: EVQLLGFGGGFIRPGGSLRLSCAASGFSFSSYSMSWVRQGPGNGLEWVAGISDRGNSKTYADSVKGRFTVSRDNSKDMLYLELTNLRVEDSATYFCARDWSQSSSSSSPDYWGPGILVTVSS VL: DIQMTQSPSAMSAFVGDRVTITCRASLGVNNYLAWYQQRPGKVPRRLIYAASSLQSGVPSRFRGSGSGTQFTLTITGLQPEDSGTYYCLQHGRYPPVFGPGTRVELI | ≥ 25 | ≥ 25
6 | COV_1071 (antibody, V domains shown) VH: QVHLVQSGAEVQKPGASVKISCKASGDTFSESYVHWVRQAPGSGLEWMGIINTRDGDTNYTHQFQDRVMMTTDTSTSTVFLELYSLTSEDTAVYYCARAPDQYFDYWGQGSPVTVSA VL: DIVMTQTPLSSPVTLGQPASISCRSSESLVHSNGNTYLSWLQQRPGQPPKLLIYRVSNRFSGVPDRFSGSGAGTEFTLKISRVEAEDVGVYYCMQARHFPRTFGQGTKVEIKR | ≥ 25 | ≥ 25
7 | COV_1086 (antibody, V domains shown) VH: GAQLLESGGALVQPGGSLRLSCAASGFTFNNYGMGWVRQTPGKGLEWVSTINDNGGNTHYADSVKGRFTISRDNSKHTLYLQMNSLRVEDTALYYCAKDVGGPALFEYWGHGTLVTVSS VL: DIVMTQTPLSSSVTLGQPASISCRSSQSLVHSDGNTYLTWLQQRPGQPPKLLIYKISNRLSGVPDRFSGSGAGTDFTLKISRVEAEDVGVYYCMQATHFPRTFGQGTKLEIKR | ≥ 25 | ≥ 25
8 | COV_1045 (antibody, V domains shown) VH: QVHLVQSGAEVQKPGASVKISCKASGDTLSDSYVHWVRQAPGSGLEWMGIINTRDGDTNYTHQFQDRVMMTTDTSTSTVFLELFSLTSEDTAVYYCARAPDQYFDYWGQGSPVTVSA VL: DIVMTQTPLSSPVTLGQPASISCRSSESLVHSNGNTYLSWLQQRPGQPPRLLIYRVSNRFSGVPDRFSGSGAGTEFTLKISRVEAEDVGVYYCMQARHFPRTFGQGTKVEIK | ≥ 25 | ≥ 25
9 | COV_1087 (antibody, V domains shown) VH: QVQLVQSGAEVQKPGASVKVSCKASGDTFSYHYVHWVRQAPGYGLEWMGIIDPRNADTNYTQKFQGRVTMTTDTSTNTVFLELSSLTSDDTAVYYCARAPDQYFDYWGQGSPVTVSA VL: DIVMTQTPLSSPVTLGQPASISCKSSESLLHSDGNTYLSWLQQRPGQPPRLLIYRVSNRFSGVPDRFSGSGAGTDFTLRISRVEAEDVGVYYCMQATQFPRTFGQGTKVEIKR | ≥ 25 | ≥ 25
10 | COV_3019 (antibody, V domains shown) VH: EVQLVESGGGLVQPGQSLRLSCTTSGFNFGDNSMSWVRQAPGKGLEWVGFISPKSHGETTEYAASVKGRFSISRDDSTSIAYLQMSSLKTEDTAIYYCIRDSYGHFPEYGFDIWGQGTMVTVSS VL: DVVLTQTPLFLSVTPGQPASISCKSSRSLIHSDGKTYFYWFLQKAGQPPQLLIYEASNRFSGVPDRFSGSGSGTDFTLHISRVEAEDVGIYYCMHSIQLPRTFGQGTKVELT | ≥ 25 | ≥ 25
11 | COV_3031 (antibody, V domains shown) VH: EVQLVESGGGLVQPGRSLRLSCTTSGFNFGDNSMSWVRQAPGKGLEWVGFISNKAYGGTTEYAASVKGRFTISRDDSTSIAYLQMNSLKTEDTAIYYCIRDSYGHFPDYGFDIWGQGTMVTVSS VL: DVVLTQTPLFLSVTPGQPASISCKSSRSLIHSDGKTYFYWFLQKPGQPPQLLIYEASNRFSGVPDRFSGSGSGTDFTLKISRVEAEDVGVYYCMHSIQLPRTFGQGTKVEIT | ≥ 25 | ≥ 25
12 | COV_3028 (antibody, V domains shown) VH: EVQLVESGGGLVQPGQSLRLSCTTSGFNFGDNSMSWVRQAPGKGLEWVGFISPKSHGGTTEYAASVKGRFSISRDDSTSNAYLQMTSLKTEDTAIYYCIRDSYGHFPEYGFDIWGQGTMVTVSS VL: DVVLTQTPLFLSVTPGQPASISCKSSGSLIHTDGKTYFYWFLQKAGQPPQLLIYEASNRFSGVPDRFSGSGSGTDFTLHISRVEAEDVGIYYCMHSIQLPRTFGQGTKVELT | ≥ 25 | ≥ 25
13 | COV_1037 (antibody, V domains shown) VH: QVQLVESGGGVVQPGRSLRLSCAASGFTFSSYGMHWVRQAPGKGLEWVAVIWYDGSNKYYADSVKGRFTISRDNSKNTLYLQMNSLRAEDTAVYYCARGGYQLLWHYYYYYGMDVWGQGTTVTVSS VL: not shown | ≥ 25 | ≥ 25
14 | COV_2172 (SEQ ID NO:442/447) (antibody, V domains shown) VH: EVQLVESGGGVVQPGRSLRLSCAPSGFTFSTYAMHWVRQAPGKGLEWVAVISYDGSIKYYADSVKGRFTISRDNTMNTVFLQMNSLRAEDTAVYFCAKGGERWELFTSFDYWGQGTQVTVSS VL: QSALTQPRSVSGSPGQSVTISCTGTSSDVGGYNYVSWYQQHPGKAPKLMIYDVSKRPSGVPDRFSGSKSGNTASLTISGLQAEDEADYYCCSYAGSYTFVFGGGTKLTVL | 3.73 | ≥ 25
15 | COV_3000 (antibody, V domains shown) VH: EVQLVESGGGLVQPGRSLRLSCTASGFNFGDNSMSWVRQAPGKGLEWVGFISNRASGGTTEYAASVKGRFTISRDDSKSIAYLQMNSLKTEDTAMYFCTKDSYGHFPNYGFDIWGQGTMVTVSS VL: AVVMTQTPLSLSVTPGQPASISCKSSQSLIHTDGKTYHYWFLQRPGQPPQLLIYDVSNRVSGVPDRFSGSGSGTDFTLKISRVEADDVGVYYCMHSIQLPRAFGQGTKVEIT | ≥ 25 | ≥ 25
16 | COV_3013 (antibody, V domains shown) VH: EVQLVESGGGLVQPGRSLRLSCTTSGFNFGDNSMSWVRQAPGKGLEWVGFISNKAHGATTEYAASVRGRFTISRDDSKSIVYLQMNSLTTEDTAMYYCIRDSYGHFPSYGFDIWGQGTMVTVSS VL: DVVMTQTPLSLSVTPGQPASISCKSSQSLIHSDAKTYFYWFLQKPGQPPQLLIYDVSNRFSGVPDRFSGSGSGTDFTLKISRVEAEDVGVYYCMHSIQLPRTFGQGTKVEIT | ≥ 25 | ≥ 25
17 | COV_3037 (antibody, V domains shown) VH: EVQLVESGGGLVQPGRSLRLSCTASGFNFGDNSMSWVRQAPGKGLEWVGFISNRAYGGTTEYAASVKGRFSISRDDSKSIAYLQMNSLRTEDTAMYFCTKDSYGHFPNYGFDIWGQGTMVIVSS VL: VVVMTQTPLSLSVTPGQPASISCKSSQSLIHTDGKTYHYWFLQRPGQPPQLLIYDVSNRVSGVPDRFSGSGSGTDFTLKISRVEADDVGVYYCMHSIQLPRAFGQGTKVEIT | ≥ 25 | ≥ 25
18 | COV_2018 (antibody, V domains shown) VH: QVQLVQSGAEVKKPGSSVKVSCKASGGTSSSYAISWVRQAPGQGLEWIGGIIPIFDTTKYAQKFQGRVTITADESTNTAYMEVSSLRSEDTAVYYCAKVADRVGASTGELDYWGQGTLVTVSS VL: EVVLTQSPATLSLSPGERGTLSCRASQSISNYLAWYQQKPGQAPRLLIYNASNRATGVPARFSGSGSGTDFTLTISSLEPEDFAVYYCQQRSNWPPWTFGQGTKVEIK | 0.31 | 1.27
19 | COV_2108 (antibody, V domains shown) VH: EVQLVESGGGVVQPGRSLRLSCAASGFTFSNYAFHWVRQAPGKGLEWVAVISYDGSIKYSADSVKGRFTISRDNSKNTLYLQMNSLRAEDTAVYYCARDSGDYVDYFDYWGQGTLVTVSS VL: DIQMTQSPSSLSASVGDRVTITCRASQSISSYLNWYQQKPGKAPKLLIHTTSSLQSGVPSRFSGSGSGTGFTLTISSLQPEDFATYYCQQSYSSPPLTFGGGTKVEIK | 13.5 | 15.8
20 | COV_1082 (antibody, V domains shown) VH: EVQLVESGGGLVQPGGSLRLSCAASGFIFNIHGMNWFRQAPGKGLEWISHIGTSGESRDIHYADSVRGRFTISRDNGKHSLYLQMNSLTAEDTAVYFCARGLTNSDLWGQGTLVTVSS VL: EIVMTQTPLSSPVTLGQPASISCRSSESLVHSNGDTYLSWLHQRPGQPPRLLLYKISNRFSGVPDRFSGSGAGTDFTLTISRVEAEDVGLYYCMQATSFPRTFGQGTKVEIKR | ≥ 25 | ≥ 25
